Test results taken from publication PMC6414199, “Bim escapes displacement by BH3-mimetic anti-cancer drugs by double-bolt locking both Bcl-XL and Bcl-2” (eLife, 2019).

Columns and labels:
[1] = molecular target: Bcl-XL single-cysteine mutant 152C, Alexa647-labelled, Q07817-1; test: FRET with purified proteins; details: chain shown with the change, highest ABT-263 point, x position est. about 3000 nM, read off a plot
[2] = molecular target: mCerulean3-Bcl-2 (human), P10415; test: FRET or BRET; FLIM-FRET in live MCF-7 cells: mCer3-Bcl-XL or mCer3-Bcl-2 stably expressed (donor), Venus-BH3 protein transiently expressed (acceptor); binding curves of FLIM-FRET efficiency against the Venus:mCer3 intensity ratio, 25 C; untreated, DMSO, 20 uM ABT-263 (18-24 h) or 1.25-20 uM A-1155463, A-1331852, ABT-263; R values interpolated at ratio 0.5 (Bcl-XL) or 0.25 (Bcl-2), ^VBad4E signal subtracted; details: remark: other sources report otherwise
Sequence of mCerulean3-Bcl-2 (human), P10415 (P10415 whole entry): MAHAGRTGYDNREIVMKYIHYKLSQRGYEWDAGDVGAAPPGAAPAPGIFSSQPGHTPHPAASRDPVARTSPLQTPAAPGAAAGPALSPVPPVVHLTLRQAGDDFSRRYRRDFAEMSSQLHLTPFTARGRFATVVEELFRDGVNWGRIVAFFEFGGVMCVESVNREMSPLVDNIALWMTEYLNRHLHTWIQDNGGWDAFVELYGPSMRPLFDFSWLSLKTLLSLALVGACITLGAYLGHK

[3] = molecular target: mCerulean3-Bcl-XL (human), Q07817; test: as above; details: remark: other sources report otherwise
Sequence of mCerulean3-Bcl-XL (human), Q07817 (Q07817 whole entry): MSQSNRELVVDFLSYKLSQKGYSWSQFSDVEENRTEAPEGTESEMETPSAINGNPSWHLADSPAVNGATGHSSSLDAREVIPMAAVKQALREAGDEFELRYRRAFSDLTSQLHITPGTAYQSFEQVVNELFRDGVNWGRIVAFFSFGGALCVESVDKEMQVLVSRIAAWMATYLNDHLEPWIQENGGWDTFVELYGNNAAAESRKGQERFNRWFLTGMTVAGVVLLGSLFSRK

[4] = in solution, without liposomes, parent: est. 68
[5] = with liposomes, parent: est. 99

Sequence of Bcl-XL single-cysteine mutant 152C, Alexa647-labelled, Q07817-1 (Q07817 whole entry, stated change not applied): as the sequence (Q07817 whole entry) above

response (% BH3 protein bound) [1, 4] | response (% BH3 protein bound) [1, 5] | R (ABT-263), % of FRET signal left with 20 uM ABT-263 [2] | IC50 of A-1155463 for disrupting the pair [3] | IC50 of A-1331852 for disrupting the pair [3] | IC50 of ABT-263 for disrupting the pair [3] | R (ABT-263), % of FRET signal left with 20 uM ABT-263 [3] | R with A-1155463, % of FRET signal left [3] | R with A-1331852, % of FRET signal left [3] | Binder
18 | 22 | – | – | – | – | – | – | – | BimL single-cysteine mutant 41C, Alexa568-labelled I188E (protein) MAKQPSDVSSECDREGGQLQPAERPPQLRPGAPTSLQTEPCDRSPAPMSCDKSTQTPSPPCQAFNHYLSAMASIRQSQEEPEDLRPEIRIAQELRRIGDEFNETYTRRVFANDYREAEDHPQMVILQLLRFEFRLVWRRH
14 | 24 | – | – | – | – | – | – | – | BimL single-cysteine mutant 41C, Alexa568-labelled I181E (protein) MAKQPSDVSSECDREGGQLQPAERPPQLRPGAPTSLQTEPCDRSPAPMSCDKSTQTPSPPCQAFNHYLSAMASIRQSQEEPEDLRPEIRIAQELRRIGDEFNETYTRRVFANDYREAEDHPQMVELQLLRFIFRLVWRRH
– | – | 18.6% | < 1.25 µM | < 1.25 µM | > 10 µM | 46.4% | 45% | 20% | Venus-Bad, Q92934 1-168 (natural protein) MFQIPEFEPSEQEDSSSAERGLGPSPAGDGPSGSGKHHRQAPGLLWDASHQQEQPTSSSHHGGAGAVEIRSRHSSYPAGTEDDEGMGEEPSPFRGRSRSAPPNLWAAQRYGRELRRMSDEFVDSFKKGLPRPKSAGTATQMRQSSSWTRVFQSWWDRNLGRGSSAPSQ
